Decrease in NF-κB activation by LTβ, luciferase reporter, mouse embryonic fibroblast cells and NF-κB activation by LTβ, luciferase reporter, mouse embryonic fibroblast cells data for 2 substances are collected here from US20050287144A1.

The target in the experiment is endogenous NIK of mouse embryonic fibroblast cells (mouse) (UniProt Q9WUL6). Put plainly: cell-based or functional assay.
endogenous NIK of mouse embryonic fibroblast cells (mouse), sequence (Q9WUL6 whole entry): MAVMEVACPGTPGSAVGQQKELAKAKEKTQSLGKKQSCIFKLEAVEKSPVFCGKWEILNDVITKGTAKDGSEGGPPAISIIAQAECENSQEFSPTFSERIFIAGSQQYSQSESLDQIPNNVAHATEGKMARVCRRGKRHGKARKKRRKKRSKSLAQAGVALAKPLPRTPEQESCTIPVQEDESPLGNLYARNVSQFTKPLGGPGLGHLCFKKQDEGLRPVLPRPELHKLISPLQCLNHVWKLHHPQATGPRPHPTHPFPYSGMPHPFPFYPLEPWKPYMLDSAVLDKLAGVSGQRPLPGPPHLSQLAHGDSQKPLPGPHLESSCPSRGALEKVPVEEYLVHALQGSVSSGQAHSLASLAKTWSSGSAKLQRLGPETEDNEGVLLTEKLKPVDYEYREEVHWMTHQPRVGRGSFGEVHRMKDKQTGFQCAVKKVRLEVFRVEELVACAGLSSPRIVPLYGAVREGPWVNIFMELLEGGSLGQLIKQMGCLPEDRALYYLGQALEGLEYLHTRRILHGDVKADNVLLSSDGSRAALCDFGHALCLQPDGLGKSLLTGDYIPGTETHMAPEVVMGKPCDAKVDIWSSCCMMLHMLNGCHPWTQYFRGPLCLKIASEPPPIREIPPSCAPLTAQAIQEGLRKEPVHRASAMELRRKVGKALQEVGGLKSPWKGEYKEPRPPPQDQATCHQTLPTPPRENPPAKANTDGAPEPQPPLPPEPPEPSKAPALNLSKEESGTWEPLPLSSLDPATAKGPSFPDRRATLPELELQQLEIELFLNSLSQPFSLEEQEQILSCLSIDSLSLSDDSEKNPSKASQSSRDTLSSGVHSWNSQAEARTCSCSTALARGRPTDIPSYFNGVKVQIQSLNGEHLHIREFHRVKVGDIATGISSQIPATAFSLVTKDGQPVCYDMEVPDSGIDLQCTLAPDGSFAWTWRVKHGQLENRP

Regarding “GST-41MDD fusion protein (from UniProt P31785 329-369)”, the decrease in NF-κB activation by LTβ, luciferase reporter, mouse embryonic fibroblast cells turned out to be 50%.
“GST fusion protein with the intracellular domain of cγc (from UniProt P31785 284-369)” registered an NF-κB activation by LTβ, luciferase reporter, mouse embryonic fibroblast cells of 2.5 fold.
